Measurements from patent US6008019A, “Plasminogen activator from saliva of the vampire bat” (Schering Aktiengesellschaft, priority 1989, dated 1999).

Tests used:
[1] = substrate: CC[C@@H](C)[C@@H](N)C(=O)N1CCC[C@H]1C(=O)N[C@@H](CCCNC(=N)N)C(=O)Nc1ccc([N+](=O)[O-])cc1; assay: Km determination of amidolytic chromogenic substrates with v-PA α1; assay type: biochemical, Desmodus rotundus; conditions: other: v-PA α1, 3 units per hole, 100 mM Tris pH 8.0/100 mM NaCl/0.01% Tween 80, 37° C., Lineweaver-Burk plot
Description: (§1) In a 96-hole plate, respectively 90 μl of 100 mM Tris pH 8.0/100 mM NaCl/0.01% "Tween" 80 and 50 μl of the corresponding chromogenic substrate (all from Kabi Vitrum, Stockholm, Sweden) in the final concentrations of 0.03/0.06/0.1/0.3/0.6 and 1 mM are incubated with 10 μl (3 units per hole) of the corresponding plasminogen activator at 37° C., and the thus-released p-nitroaniline is determined photometrically at 405 nm at various points in time between 0-7 hours. The resultant data are evaluated with the aid of a Lineweaver-Burk plot, and the Km value is determined (Segel, I. H., Enzyme Kinetics, John Wiley and Sons, New York). The following chromogenic substrates were utilized:

[2] = substrate: N=C(N)NCCC[C@H](NC(=O)CNC(=O)[C@@H]1CCC(=O)N1)C(=O)Nc1ccc([N+](=O)[O-])cc1; assay: as above; assay type: biochemical, Desmodus rotundus; conditions: other: v-PA α1, 3 units per hole, 100 mM Tris pH 8.0/100 mM NaCl/0.01% Tween 80, 37° C., Lineweaver-Burk plot
Description: as §1

[3] = substrate: CC[C@@H](C)[C@@H](N)C(=O)N1CCC[C@H]1C(=O)N[C@@H](CCCNC(=N)N)C(=O)Nc1ccc([N+](=O)[O-])cc1; assay: Km determination of amidolytic chromogenic substrates with v-PA β; assay type: biochemical, Desmodus rotundus; conditions: other: v-PA β, 3 units per hole, 100 mM Tris pH 8.0/100 mM NaCl/0.01% Tween 80, 37° C., Lineweaver-Burk plot
Description: as §1

[4] = substrate: N=C(N)NCCC[C@H](NC(=O)CNC(=O)[C@@H]1CCC(=O)N1)C(=O)Nc1ccc([N+](=O)[O-])cc1; assay: as above; assay type: biochemical, Desmodus rotundus; conditions: other: v-PA β, 3 units per hole, 100 mM Tris pH 8.0/100 mM NaCl/0.01% Tween 80, 37° C., Lineweaver-Burk plot
Description: as §1

[5] = substrate: N=C(N)NCCC[C@H](NC(=O)CNC(=O)[C@@H]1CCC(=O)N1)C(=O)Nc1ccc([N+](=O)[O-])cc1; assay: Km determination of amidolytic chromogenic substrates with t-PA; assay type: biochemical; conditions: other: t-PA, 3 units per hole, 100 mM Tris pH 8.0/100 mM NaCl/0.01% Tween 80, 37° C., Lineweaver-Burk plot
Description: as §1

B1: Desmodus rotundus saliva plasminogen activator v-PA α1 (Desmodus rotundus) (protein)
chain: AYGVACKDEITQMTYRRQESWLRPEVRSKRVEHCQCDRGQARCHTVPVNSCSEPRCFNGGTCWQAVYFSDFVCQCPAGYTGKRCEVDTRATCYEGQGVTYRGTWSTAESRVECINWNSSLLTRRTYNGRMPDAFNLGLGNHNYCRNPNGAPKPWCYVIKAGKFTSESCSVPVCSKATCGLRKYKEPQLHSTGGLFTDITSHPWQAAIFAQNRRSSGERFLCGGILISSCWVLTAAHCFQESYLPDQLKVVLGRTYRVKPGEEEQTFKVKKYIVHKEFDDDTYNNDIALLQLKSDSPQCAQESDSVRAICLPEANLQLPDWTECELSGYGKHKSSSPFYSEQLKEGHVRLYPSSRCAPKFLFNKTVTNNMLCAGDTRSGEIYPNVHDACQGDSGGPLVCMNDNHMTLLGIISWGVGCGEKDVPGVYTKVTNYLGWIRDNMHL
notes: from tissue
In the case of B1, the Km [1] is reported as 1000 µM and the Km [2] is reported as 2000 µM.

B2: Desmodus rotundus saliva plasminogen activator v-PA β (Desmodus rotundus) (protein)
chain: AYGGCSELRCFNGGTCWQAASFSDFVCQCPKGYTGKQCEVDTHATCYKDQGVTYRGTWSTSESGAQCINWNSNLLTRRTYNGRRSDAITLGLGNHNYCRNPDNNSKPWCYVIKASKFILEFCSVPVCSKATCGLRKYKEPQLHSTGGLFTDITSHPWQAAIFAQNRRSSGERFLCGGILISSCWVLTAAHCFQERYPPQHLRVVLGRTYRVKPGKEEQTFEVEKCIIHEEFDDDTYNNDIALLQLKSGSPQCAQESDSVRAICLPEANLQLPDWTECELSGYGKHKSSSPFYSEQLKEGHVRLYPSSRCTSKFLFNKTVTNNMLCAGDTRSGEIYPNVHDACQGDSGGPLVCMNDNHMTLLGIISWGVGCGEKDIPGVYTKVTNYLGWIRDNMRP
notes: from tissue
B2 showed a Km [3] of 2000 µM and a Km [4] of 2000 µM.

B3: t-PA (tissue-type plasminogen activator) (Homo sapiens) (protein)
chain: SYQVICRDEKTQMIYQQHQSWLRPVLRSNRVEYCWCNSGRAQCHSVPVKSCSEPRCFNGGTCQQALYFSDFVCQCPEGFAGKCCEIDTRATCYEDQGISYRGTWSTAESGAECTNWNSSALAQKPYSGRRPDAIRLGLGNHNYCRNPDRDSKPWCYVFKAGKYSSEFCSTPACSEGNSDCYFGNGSAYRGTHSLTESGASCLPWNSMILIGKVYTAQNPSAQALGLGKHNYCRNPDGDAKPWCHVLKNRRLTWEYCDVPSCSTCGLRQYSQPQFRIKGGLFADIASHPWQAAIFAKHRRSPGERFLCGGILISSCWILSAAHCFQERFPPHHLTVILGRTYRVVPGEEEQKFEVEKYIVHKEFDDDTYDNDIALLQLKSDSSRCAQESSVVRTVCLPPADLQLPDWTECELSGYGKHEALSPFYSERLKEAHVRLYPSSRCTSQHLLNRTVTDNMLCAGDTRSGGPQANLHDACQGDSGGPLVCLNDGRMTLVGIISWGLGCGQKDVPGVYTKVTNYLDWIRDNMRP
Protein B3 has a Km [5] of 2000 µM.
